Results taken from the supplement of paper PMC9876800.

Test system: peptide library, one residue held at a place counted from the S/T acceptor
Experiment: relative phosphorylation of the sub-library (ratio to the mean residue at this position); higher = residue favoured
Conditions: human
Summary of the method: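 Relative sub-library phosphorylation, a ratio to the mean residue at that position, was obtained by phosphorimaging and densitometry of spots on streptavidin membranes. Before capture, purified recombinant kinases were incubated for 90 min under kinase-specific conditions with 50 μM biotinylated degenerate peptide sub-libraries and 50 μM ATP spiked with γ-32P-ATP. Each sub-library fixed one residue at one position around a central Ser/Thr.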

STK11, construct: Full length, sequence (Q15831 whole entry, looked up): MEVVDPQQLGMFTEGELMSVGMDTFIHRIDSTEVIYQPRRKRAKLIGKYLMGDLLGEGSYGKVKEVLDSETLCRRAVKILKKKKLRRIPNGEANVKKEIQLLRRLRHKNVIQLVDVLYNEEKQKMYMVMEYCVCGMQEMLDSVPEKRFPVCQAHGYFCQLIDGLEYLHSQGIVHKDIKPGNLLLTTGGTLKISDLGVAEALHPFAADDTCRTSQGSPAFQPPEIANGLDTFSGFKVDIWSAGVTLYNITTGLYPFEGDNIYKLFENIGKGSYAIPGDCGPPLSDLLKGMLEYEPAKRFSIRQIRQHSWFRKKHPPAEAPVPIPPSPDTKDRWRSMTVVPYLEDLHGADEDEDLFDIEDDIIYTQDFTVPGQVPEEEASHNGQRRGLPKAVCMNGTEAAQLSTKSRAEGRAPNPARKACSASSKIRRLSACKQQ

**Q.** Which results are given for “STK11, construct: Full length (from UniProt Q15831)”?
**A.** relative phosphorylation (A fixed, at +1): 1.07; relative phosphorylation (A fixed, at +2): 1.17; relative phosphorylation (A fixed, at +3): 0.932; relative phosphorylation (A fixed, at +4): 1.03; relative phosphorylation (A fixed, at -1): 1.34; relative phosphorylation (A fixed, at -2): 0.926; relative phosphorylation (A fixed, at -3): 0.956; relative phosphorylation (A fixed, at -4): 0.936; relative phosphorylation (A fixed, at -5): 1.22; relative phosphorylation (D fixed, at +1): 0.613; relative phosphorylation (D fixed, at +2): 0.987; relative phosphorylation (D fixed, at +3): 0.787; relative phosphorylation (D fixed, at +4): 0.832; relative phosphorylation (D fixed, at -1): 0.726; relative phosphorylation (D fixed, at -2): 0.407; relative phosphorylation (D fixed, at -3): 0.289; relative phosphorylation (D fixed, at -4): 0.773; relative phosphorylation (D fixed, at -5): 0.827; relative phosphorylation (E fixed, at +1): 0.417; relative phosphorylation (E fixed, at +2): 0.598; relative phosphorylation (E fixed, at +3): 0.688; relative phosphorylation (E fixed, at +4): 0.75; relative phosphorylation (E fixed, at -1): 0.874; relative phosphorylation (E fixed, at -2): 0.338; relative phosphorylation (E fixed, at -3): 0.312; relative phosphorylation (E fixed, at -4): 0.738; relative phosphorylation (E fixed, at -5): 0.641; relative phosphorylation (F fixed, at +1): 0.801; relative phosphorylation (F fixed, at +2): 0.907; relative phosphorylation (F fixed, at +3): 0.891; relative phosphorylation (F fixed, at +4): 0.898; relative phosphorylation (F fixed, at -1): 0.582; relative phosphorylation (F fixed, at -2): 0.932; relative phosphorylation (F fixed, at -3): 1.81; relative phosphorylation (F fixed, at -4): 1.5; relative phosphorylation (F fixed, at -5): 0.939; relative phosphorylation (G fixed, at +1): 1.26; relative phosphorylation (G fixed, at +2): 1.12; relative phosphorylation (G fixed, at +3): 1.62; relative phosphorylation (G fixed, at +4): 1.31; relative phosphorylation (G fixed, at -1): 0.854; relative phosphorylation (G fixed, at -2): 0.82; relative phosphorylation (G fixed, at -3): 1.99; relative phosphorylation (G fixed, at -4): 1.06; relative phosphorylation (G fixed, at -5): 1.28; relative phosphorylation (H fixed, at +1): 1.27; relative phosphorylation (H fixed, at +2): 1.22; relative phosphorylation (H fixed, at +3): 1.36; relative phosphorylation (H fixed, at +4): 1.13; relative phosphorylation (H fixed, at -1): 1.22; relative phosphorylation (H fixed, at -2): 0.924; relative phosphorylation (H fixed, at -3): 1.17; relative phosphorylation (H fixed, at -4): 1.13; relative phosphorylation (H fixed, at -5): 1.07; relative phosphorylation (I fixed, at +1): 0.653; relative phosphorylation (I fixed, at +2): 0.711; relative phosphorylation (I fixed, at +3): 0.579; relative phosphorylation (I fixed, at +4): 0.741; relative phosphorylation (I fixed, at -1): 0.349; relative phosphorylation (I fixed, at -2): 1.81; relative phosphorylation (I fixed, at -3): 0.441; relative phosphorylation (I fixed, at -4): 0.485; relative phosphorylation (I fixed, at -5): 0.492; relative phosphorylation (K fixed, at +1): 0.647; relative phosphorylation (K fixed, at +2): 0.595; relative phosphorylation (K fixed, at +3): 0.892; relative phosphorylation (K fixed, at +4): 1.11; relative phosphorylation (K fixed, at -1): 1.59; relative phosphorylation (K fixed, at -2): 0.867; relative phosphorylation (K fixed, at -3): 0.95; relative phosphorylation (K fixed, at -4): 0.857; relative phosphorylation (K fixed, at -5): 1.49; relative phosphorylation (L fixed, at +1): 0.974; relative phosphorylation (L fixed, at +2): 0.701; relative phosphorylation (L fixed, at +3): 0.766; relative phosphorylation (L fixed, at +4): 0.952; relative phosphorylation (L fixed, at -1): 0.777; relative phosphorylation (L fixed, at -2): 2.39; relative phosphorylation (L fixed, at -3): 1.14; relative phosphorylation (L fixed, at -4): 0.627; relative phosphorylation (L fixed, at -5): 0.566; relative phosphorylation (M fixed, at +1): 1.16; relative phosphorylation (M fixed, at +2): 0.714; relative phosphorylation (M fixed, at +3): 0.699; relative phosphorylation (M fixed, at +4): 0.813; relative phosphorylation (M fixed, at -1): 1.3; relative phosphorylation (M fixed, at -2): 1.12; relative phosphorylation (M fixed, at -3): 1.48; relative phosphorylation (M fixed, at -4): 0.685; relative phosphorylation (M fixed, at -5): 0.775; relative phosphorylation (N fixed, at +1): 1.53; relative phosphorylation (N fixed, at +2): 1.07; relative phosphorylation (N fixed, at +3): 1.21; relative phosphorylation (N fixed, at +4): 1.08; relative phosphorylation (N fixed, at -1): 1.22; relative phosphorylation (N fixed, at -2): 1.06; relative phosphorylation (N fixed, at -3): 0.721; relative phosphorylation (N fixed, at -4): 0.859; relative phosphorylation (N fixed, at -5): 1.19; relative phosphorylation (P fixed, at +1): 0.597; relative phosphorylation (P fixed, at +2): 1.86; relative phosphorylation (P fixed, at +3): 1.55; relative phosphorylation (P fixed, at +4): 1.71; relative phosphorylation (P fixed, at -1): 0.472; relative phosphorylation (P fixed, at -2): 0.709; relative phosphorylation (P fixed, at -3): 1.16; relative phosphorylation (P fixed, at -4): 1.27; relative phosphorylation (P fixed, at -5): 1.86; relative phosphorylation (Q fixed, at +1): 1.57; relative phosphorylation (Q fixed, at +2): 0.922; relative phosphorylation (Q fixed, at +3): 1.14; relative phosphorylation (Q fixed, at +4): 1.17; relative phosphorylation (Q fixed, at -1): 1.62; relative phosphorylation (Q fixed, at -2): 0.836; relative phosphorylation (Q fixed, at -3): 0.728; relative phosphorylation (Q fixed, at -4): 0.799; relative phosphorylation (Q fixed, at -5): 0.901; relative phosphorylation (R fixed, at +1): 1.34; relative phosphorylation (R fixed, at +2): 0.692; relative phosphorylation (R fixed, at +3): 1.02; relative phosphorylation (R fixed, at +4): 0.953; relative phosphorylation (R fixed, at -1): 1.84; relative phosphorylation (R fixed, at -2): 1.19; relative phosphorylation (R fixed, at -3): 0.765; relative phosphorylation (R fixed, at -4): 0.828; relative phosphorylation (R fixed, at -5): 1.27; relative phosphorylation (V fixed, at +1): 0.654; relative phosphorylation (V fixed, at +2): 0.882; relative phosphorylation (V fixed, at +3): 0.7; relative phosphorylation (V fixed, at +4): 0.724; relative phosphorylation (V fixed, at -1): 0.495; relative phosphorylation (V fixed, at -2): 1.06; relative phosphorylation (V fixed, at -3): 0.385; relative phosphorylation (V fixed, at -4): 0.498; relative phosphorylation (V fixed, at -5): 0.532; relative phosphorylation (W fixed, at +1): 1.36; relative phosphorylation (W fixed, at +2): 1.66; relative phosphorylation (W fixed, at +3): 1.15; relative phosphorylation (W fixed, at +4): 1; relative phosphorylation (W fixed, at -1): 0.848; relative phosphorylation (W fixed, at -2): 0.712; relative phosphorylation (W fixed, at -3): 1.29; relative phosphorylation (W fixed, at -4): 2.99; relative phosphorylation (W fixed, at -5): 1.17; relative phosphorylation (Y fixed, at +1): 1.07; relative phosphorylation (Y fixed, at +2): 1.19; relative phosphorylation (Y fixed, at +3): 1.01; relative phosphorylation (Y fixed, at +4): 0.796; relative phosphorylation (Y fixed, at -1): 0.897; relative phosphorylation (Y fixed, at -2): 0.903; relative phosphorylation (Y fixed, at -3): 1.41; relative phosphorylation (Y fixed, at -4): 0.959; relative phosphorylation (Y fixed, at -5): 0.775; relative phosphorylation (pThr fixed, at +1): 0.539; relative phosphorylation (pThr fixed, at +2): 0.947; relative phosphorylation (pThr fixed, at +3): 0.782; relative phosphorylation (pThr fixed, at +4): 0.571; relative phosphorylation (pThr fixed, at -1): 0.36; relative phosphorylation (pThr fixed, at -2): 0.852; relative phosphorylation (pThr fixed, at -3): 0.662; relative phosphorylation (pThr fixed, at -4): 0.713; relative phosphorylation (pThr fixed, at -5): 0.84; relative phosphorylation (pTyr fixed, at +1): 0.43; relative phosphorylation (pTyr fixed, at +2): 0.743; relative phosphorylation (pTyr fixed, at +3): 0.736; relative phosphorylation (pTyr fixed, at +4): 0.581; relative phosphorylation (pTyr fixed, at -1): 0.559; relative phosphorylation (pTyr fixed, at -2): 0.553; relative phosphorylation (pTyr fixed, at -3): 0.746; relative phosphorylation (pTyr fixed, at -4): 0.632; relative phosphorylation (pTyr fixed, at -5): 0.897
